This is an account of results in patent publication US20210179666A1 (REGENTS OF THE UNIVERSITY OF MINNESOTA, published 2021).

One may read the IC50 as the point on the concentration scale where inhibition reaches its midpoint. A lower IC50 goes with higher potency.

Like-named read-outs stand apart in the source and are kept apart here. Square brackets hold non-standard residues; d marks the D form. Dap = NC[C@H](N)C(=O)O

In experiment [1] the target is T1, human melanocortin 4 receptor (human, UniProt P32245 1-332). The experiment is described as follows: cell-based or functional assay.
T1 sequence (P32245 whole entry): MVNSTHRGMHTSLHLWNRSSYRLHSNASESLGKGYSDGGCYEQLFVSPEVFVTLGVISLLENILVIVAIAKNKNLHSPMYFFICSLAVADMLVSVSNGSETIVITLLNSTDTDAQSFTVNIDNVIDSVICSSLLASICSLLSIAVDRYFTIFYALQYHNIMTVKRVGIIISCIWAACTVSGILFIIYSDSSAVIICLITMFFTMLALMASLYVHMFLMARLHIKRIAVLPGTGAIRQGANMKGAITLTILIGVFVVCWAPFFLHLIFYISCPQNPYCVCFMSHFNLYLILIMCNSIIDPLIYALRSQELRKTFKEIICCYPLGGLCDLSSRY
Experiment [2] deals with T2, mouse melanocortin 1 receptor (mouse, UniProt Q01727 1-315). Kind of experiment: cell-based or functional assay.
T2 sequence (Q01727 whole entry): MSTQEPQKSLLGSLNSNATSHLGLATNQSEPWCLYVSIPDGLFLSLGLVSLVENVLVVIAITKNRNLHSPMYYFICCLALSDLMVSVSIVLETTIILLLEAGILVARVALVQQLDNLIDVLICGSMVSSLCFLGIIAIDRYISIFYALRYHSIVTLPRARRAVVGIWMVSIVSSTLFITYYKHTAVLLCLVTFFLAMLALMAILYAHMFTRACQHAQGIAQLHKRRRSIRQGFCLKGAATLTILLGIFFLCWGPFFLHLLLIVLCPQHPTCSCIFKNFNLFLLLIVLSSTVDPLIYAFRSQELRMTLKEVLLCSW
Experiment [3] has as its target T3, mouse melanocortin 3 receptor (mouse, UniProt P33033 1-323). The experiment is described as follows: cell-based or functional assay.
Experiment [4] addresses T4, mouse melanocortin 4 receptor (mouse, UniProt P56450 1-332). Kind of experiment: cell-based or functional assay.
In experiment [5] the target is T5, mouse melanocortin 5 receptor (mouse, UniProt P41149 1-325). Kind of experiment: cell-based or functional assay.
T5 sequence (P41149 whole entry): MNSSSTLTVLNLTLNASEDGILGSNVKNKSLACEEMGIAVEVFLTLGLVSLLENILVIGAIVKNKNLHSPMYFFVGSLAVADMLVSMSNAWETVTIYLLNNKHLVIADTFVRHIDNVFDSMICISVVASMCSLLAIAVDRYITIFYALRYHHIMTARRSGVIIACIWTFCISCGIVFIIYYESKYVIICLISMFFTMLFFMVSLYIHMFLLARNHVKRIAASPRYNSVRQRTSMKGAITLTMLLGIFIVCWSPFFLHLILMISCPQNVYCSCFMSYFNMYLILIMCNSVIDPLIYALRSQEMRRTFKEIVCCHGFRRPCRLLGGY
For experiment [6], the target named is T2, mouse melanocortin 1 receptor. The experiment is described as follows: 125I-NDP-MSH competition, HEK293 cells.
Experiment [7] deals with T3, mouse melanocortin 3 receptor. The experiment is described as follows: 125I-NDP-MSH competition, HEK293 cells.
In experiment [8] the target is T4, mouse melanocortin 4 receptor. The experiment is described as follows: 125I-NDP-MSH competition, HEK293 cells.
Experiment [9] has as its target T5, mouse melanocortin 5 receptor. Kind of experiment: 125I-NDP-MSH competition, HEK293 cells.
Experiment [10] deals with T1, human melanocortin 4 receptor. Kind of experiment: 125I-NDP-MSH competition, HEK293 cells.
Experiment [11] concerns the target T2, mouse melanocortin 1 receptor. The experiment is described as follows: 125I-NDP-MSH competition; fold vs SEQ ID NO: 2 control.
In experiment [12] the target is T3, mouse melanocortin 3 receptor. The description is as above.
The target of experiment [13] is T4, mouse melanocortin 4 receptor. Described as above.
Experiment [14] has as its target T5, mouse melanocortin 5 receptor. The experiment is described as above.
The target of experiment [15] is T1, human melanocortin 4 receptor. The description is as above.
In experiment [16] the target is T2, mouse melanocortin 1 receptor. The experiment is described as follows: 125I-NDP-MSH competition; fold vs SEQ ID NO: 1 control.
In experiment [17] the target is T3, mouse melanocortin 3 receptor. Described as above.
The target of experiment [18] is T4, mouse melanocortin 4 receptor. The experiment is described as above.
Experiment [19] has as its target T5, mouse melanocortin 5 receptor. Described as above.
The target in experiment [20] is T1, human melanocortin 4 receptor. Described as above.
Experiment [21] deals with T3, mouse melanocortin 3 receptor. The experiment is described as follows: cell-based or functional assay. The source holds these as a separate data set.
In experiment [22] the target is T4, mouse melanocortin 4 receptor. The experiment is described as follows: cell-based or functional assay. The source holds these as a separate data set.
The target in experiment [23] is T5, mouse melanocortin 5 receptor. The experiment is described as follows: cell-based or functional assay. The source holds these as a separate data set.

T3 sequence (P33033 whole entry): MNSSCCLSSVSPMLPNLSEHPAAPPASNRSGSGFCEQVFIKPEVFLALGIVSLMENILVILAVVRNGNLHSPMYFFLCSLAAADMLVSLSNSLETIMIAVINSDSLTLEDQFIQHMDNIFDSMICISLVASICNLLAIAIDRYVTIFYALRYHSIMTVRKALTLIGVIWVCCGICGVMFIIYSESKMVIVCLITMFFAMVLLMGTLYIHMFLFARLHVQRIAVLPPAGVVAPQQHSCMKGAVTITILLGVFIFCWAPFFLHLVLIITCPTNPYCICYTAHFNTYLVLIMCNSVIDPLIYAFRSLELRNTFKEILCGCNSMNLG
T4 sequence (P56450 whole entry): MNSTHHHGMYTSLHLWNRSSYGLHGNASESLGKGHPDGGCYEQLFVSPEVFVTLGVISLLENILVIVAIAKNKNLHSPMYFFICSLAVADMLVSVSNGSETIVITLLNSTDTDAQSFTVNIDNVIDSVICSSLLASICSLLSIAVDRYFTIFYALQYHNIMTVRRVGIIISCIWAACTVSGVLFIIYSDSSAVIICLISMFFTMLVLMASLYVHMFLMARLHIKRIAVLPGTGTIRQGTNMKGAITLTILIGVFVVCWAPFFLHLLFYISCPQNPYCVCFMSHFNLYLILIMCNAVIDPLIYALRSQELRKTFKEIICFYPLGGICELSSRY

B1: ZMK 2-99 (peptide)
peptide: cyclo(PHFF[Dap]AF[dP])
notes: Arg111His SNP in the Dap scaffold; also called c[Pro-His-Phe-Phe-Dap-Ala-Phe-DPro]
Regarding B1, the figures for the “pA2 (Schild analysis, agonist NDP-MSH, cAMP)” value (“pA2” below) in experiment [1], in experiment [3] and in [4] were 6.4, 5.4 and 6, respectively. Moreover, the “percent maximal stimulatory response at 100 µM (cAMP)” value (shortened to “percent maximal stimulatory response”) in experiment [2] amounted to 56%. Moreover, the “EC50 (cAMP agonist)” value in [3], in experiment [4] and in experiment [5] was greater than 100 µM throughout. Further, the IC50 in [6] amounted to 25 µM; in experiment [7], 15 µM; in experiment [8], 1 µM; in experiment [9] it was 12 µM; in experiment [10], 2.7 µM. Further, the “Fold Diff” value in [11] worked out at 5 fold; in experiment [12], 5 fold; in experiment [13] it was 500 fold; in experiment [14] it was 7 fold; in experiment [15], 400 fold.

B2: ZMK 2-112 (peptide)
peptide: cyclo(PRYF[Dap]AF[dP])
notes: Phe112Tyr SNP in the Dap scaffold; also called c[Pro-Arg-Tyr-Phe-Dap-Ala-Phe-DPro]
For B2, the “pA2” value in [1] turned out to be 7.5; in experiment [3], 6.5; in experiment [4], 7.3; in experiment [5] it was 6.5. Also, the “percent maximal stimulatory response” value in experiment [2] came out at 48%. In addition, the “EC50 (cAMP agonist)” value in experiment [3], in experiment [4] and in [5] was greater than 100 µM throughout. For the same molecule, the IC50 in experiment [6] came out at 18 µM; in [7], 28 µM; in [8], 0.134 µM; in [9], 36 µM; in experiment [10], 1.02 µM. Further, the “Fold Diff” value in experiment [11] was found to be 4 fold; in [12], 9 fold; in experiment [13], 70 fold; in experiment [14], 20 fold; in [15], 100 fold.

B3: ZMK 2-82 (peptide)
peptide: cyclo(PRFFNVF[dP])
notes: Ala115Val SNP in the Asn scaffold; also called c[Pro-Arg-Phe-Phe-Asn-Val-Phe-DPro]
Take B3: the “pA2” value in experiment [1] was determined as 7.8; in experiment [3], 5.9; in [4], 7.2; in [5], 6.1. Moreover, the results for the “percent maximal stimulatory response” value in experiment [2] and in [4] were 23% and 16%, respectively. Further, the “EC50 (cAMP agonist)” value in [3] and in [5] was greater than 100 µM throughout. The IC50 in experiment [6] stood at 15 µM; in experiment [7], 53 µM; in [8], 0.038 µM; in experiment [9], 29 µM; in experiment [10], 0.25 µM. Further, the “Fold Diff” value came out at 2 fold in [16]; 3 fold in [17]; 2 fold in [18]; 2 fold in experiment [19]; 3 fold in [20].

B4: ZMK 3-18 (peptide)
peptide: cyclo(PCFFNAF[dP])
notes: Arg111Cys SNP in the Asn scaffold; also called c[Pro-Cys-Phe-Phe-Asn-Ala-Phe-DPro]
On to B4, for which the “pA2” value is less than 5 in [21], 5.9 in experiment [22], less than 5 in [23] and 5.8 in [1]. Moreover, the IC50 in experiment [6] turned out to be 24.6 µM; in experiment [8], 1.9 µM; in [10] it was 19.3 µM. The figures for the “Fold Diff” value in experiment [16], in experiment [18] and in experiment [20] were 3 fold, 90 fold and 300 fold, respectively.
